Test results: US20220282268A1

Biological target: Hybrid Rubisco of A. thaliana S2Cr lines (1a3b mutant complemented with S2Cr) (Arabidopsis thaliana; Chlamydomonas reinhardtii) (UniProt O03042)
Experiment: cell-based or functional assay

EPYC1-dGFP (truncated mature EPYC1 expressed from two cassettes as EPYC1::eGFP and EPYC1::tGFP)
share of Rubisco in the pelleted condensate that contained C. reinhardtii SSU (Coomassie-stained gel): 82%
share of Rubisco localized to the condensate (immunogold TEM, polyclonal Rubisco antibody): 54%
share of the C. reinhardtii SSU localized to the condensate (immunogold TEM, anti-CrRbcS2): 81%
